Results reported in PMC3178889 (Nature neuroscience, 2011).
“Also recorded” adds a separate entry of the source.

B1: farnesylated Tγ: farnesylated transducin γ-subunit (protein)
chain: MPVINIEDLTEKDKLKMEVDQLKKEVTLERMMVSKCCEEVRDYIEERSGEDPLVKGIPEDKNPFKELKGGCVIS
modifications: farnesylated
B2: cone Tα: cone transducin α-subunit (protein)
chain: MGSGASAEDKELAKRSKELEKKLQEDADKEAKTVKLLLLGAGESGKSTIVKQMKIIHQDGYSPEECLEYKAIIYGNVLQSILAIIRAMPTLGIDYAEVSCVDNGRQLNNLADSIEEGTMPPELVEVIRKLWKDGGVQACFDRAAEYQLNDSASYYLNQLDRITAPDYLPNEQDVLRSRVKTTGIIETKFSVKDLNFRMFDVGGQRSERKKWIHCFEGVTCIIFCAALSAYDMVLVEDDEVNRMHESLHLFNSICNHKFFAATSIVLFLNKKDLFEEKIKKVHLSICFPEYDGNNSYEDAGNYIKSQFLDLNMRKDVKEIYSHMTCATDTQNVKFVFDAVTDIIIKENLKDCGLF
B3: GCAP1: N-myristoylated GCAP1, Ca^2+-binding protein (protein)
chain: MGNIMEGKSVEELSSTECHQWYKKFMTECPSGQLTLYEFRQFFGLKNLSPSASQYVEQMFETFDFNKDGYIDFMEYVAALSLVLKGKVEQKLRWYFKLYDVDGNGCIDRDELLTIIRAIRTINPWSDSSMSAEEFTDTVFAKIDINGDGELSLEEFMEGVQKDQMLLDTLTRSLDLTGIVRRLQNGEHEEAGTGDLAAEAAG
modifications: N-myristoylated
B4: recoverin: Ca^2+-binding protein recoverin (protein)
chain: MGNSKSGALSKEILEELQLNTKFTEEELSAWYQSFLKECPSGRITRQEFESIYSKFFPDSDPKAYAQHVFRSFDANSDGTLDFKEYVIALHMTTAGKPTQKLEWAFSLYDVDGNGTISKNEVLEIVMAIFKMIKPEDVKLLPDDENTPEKRAEKIWAFFGKKEDDKLTEEEFIEGTLANKEILRLIQFEPQKVKERIKEKKQ

What follows are molecules tested on GST-UNC119 (assay: GST-UNC119 pulldown of proteins from retina lysates or HEK cells). Conditions: bovine or mouse retina lysate; Coomassie/LC-MS/MS or immunoblot.
Type: binding, bovine

Molecule	interaction with GST-UNC119 in pulldown from retina lysate
B1	not with farnesylated Tγ
B2	Pulldown of rod and cone Tα
B3	does not interact with GST-UNC119; also recorded: failed to interact
B4	failed to interact
